# In patent US12129294B2, “Methods of treatment of diseases in which IL-13 activity is detrimental using anti-IL-13 antibodies” (AbbVie Inc., priority 2016, dated 2024):
# Values joined by “and” are separate entries in the source; they are usually repeats but may differ in a detail not shown here. Equal entries are not always repeated.
# Key:
# Assay type in all cases: in vivo, human
# [1] = test system: subjects with symptomatic eosinophilic esophagitis (EoE); assay: Phase 2 study in EoE patients: clinician's global assessment of disease severity; conditions: for clinician's global assessment of disease severity, Mean change / clinician's global assessment of disease severity, LSMD versus placebo: Change to Week 16; for clinician's global assessment of disease severity, LSMD versus placebo: ANCOVA
# Excerpt: (§1) Safety was monitored throughout the study. […] The study was powered for the primary endpoint.
# [2] = test system: subjects with symptomatic eosinophilic esophagitis (EoE); assay: Phase 2 study in EoE patients: mean esophageal eosinophil count in the 5 most inflamed HPF of esophageal biopsies; conditions: for mean esophageal eosinophil count (EEOC Mean BL): baseline; for mean change from baseline in mean esophageal eosinophil count: baseline to week 16; for mean esophageal eosinophil count (EEOC Mean post): post treatment (week 16)
# Excerpt: as §1
# Additionally, various safety and tolerability endpoints are also measurable.
# To maximize consistency, biopsies were obtained from proximal and distal esophagus (i.e., 4 biopsy fragments from each level) at screening. Additional biopsies from mid-esophagus was encouraged and effort was made to obtain subsequent biopsies from the same levels. The biopsies were blinded and read by single central pathologist. To be eligible for trial, subjects were evaluated for peak eosinophil count of ≥15/HPF, from 2 of 3 (proximal, mid-, and/or distal) levels of the esophagus at the screening endoscopy.
# [3] = test system: subjects with symptomatic eosinophilic esophagitis (EoE); assay: Phase 2 study in EoE patients: dysphagia symptom composite diary score (daily symptom diary, DSD); design: dysphagia symptom composite diary score, Mean change / dysphagia symptom composite diary score, Mean / dysphagia symptom composite diary score, Median: scale not given here; conditions: for dysphagia symptom composite diary score, Mean change / dysphagia symptom composite diary score, LSMD versus placebo: Change to Week 16
# Excerpt: Safety was monitored throughout the study. […] The study was powered for the primary endpoint. […]
# [4] = test system: subjects with symptomatic eosinophilic esophagitis (EoE); assay: Phase 2 study in EoE patients: subject's global assessment of disease severity; conditions: for subject's global assessment of disease severity, Mean change / subject's global assessment of disease severity, LSMD versus placebo: Change to Week 16; for subject's global assessment of disease severity, LSMD versus placebo: ANCOVA
# Protocol: North America and Switzerland. […] Safety was monitored throughout the study. […] The study was powered for the primary endpoint. […] Still further, the effectiveness of RPC4046 (over placebo) in lowering a subject's global assessment of disease severity at week 16 was analyzed.
# [5] = both low dose (180 mg) and high dose (360 mg)
molecule,measurement,setting,value
"RPC4046: recombinant humanized, high-affinity, selective anti-IL-13 monoclonal antibody; heavy chain variable region SEQ ID NO: 2, light chain variable region SEQ ID NO: 3 (antibody, V domains shown) VH: EVTLRESGPGLVKPTQTLTLTCTLYGFSLSTSDMGVDWIRQPPGKGLEWLAHIWWDDVKRYNPALKSRLTISKDTSKNQVVLKLTSVDPVDTATYYCARTVSSGYIYYAMDYWGQGTLVTVSS VL: DIQMTQSPSSLSASVGDRVTISCRASQDIRNYLNWYQQKPGKAPKLLIFYTSKLHSGVPSRFSGSGSGTDYTLTISSLQPEDIATYYCQQGNTLPLTFGGGTKVEIK","clinician's global assessment of disease severity, Mean","[1]; 180 mg, Baseline",6.7
same,"clinician's global assessment of disease severity, Median","[1]; 180 mg, Baseline",7.0
same,"clinician's global assessment of disease severity, Mean change",[1]; 180 mg,−3.6
same,"clinician's global assessment of disease severity, LSMD versus placebo",[1]; 180 mg,−1.7
same,"clinician's global assessment of disease severity, Mean","[1]; 180 mg, Week 16",2.9
same,"clinician's global assessment of disease severity, Median","[1]; 180 mg, Week 16",2.0
same,"clinician's global assessment of disease severity, Mean","[1]; 360 mg, Baseline",6.1
same,"clinician's global assessment of disease severity, Median","[1]; 360 mg, Baseline",6.0
same,"clinician's global assessment of disease severity, Mean change",[1]; 360 mg,−2.9
same,"clinician's global assessment of disease severity, LSMD versus placebo",[1]; 360 mg,−1.3
same,"clinician's global assessment of disease severity, Mean","[1]; 360 mg, Week 16",3.2
same,"clinician's global assessment of disease severity, Median","[1]; 360 mg, Week 16",3.0
same,clinician's global assessment of disease severity at week 16,"[1]; both the low and the high dose, week 16",achieved statistical significance
same,mean esophageal eosinophil count (EEOC Mean BL),[2]; 180 mg (LD),116.6 cells/hpf and 116.7 cells/hpf
same,mean change from baseline in mean esophageal eosinophil count,[2]; 180 mg (LD),−94.8 cells/hpf
same,mean esophageal eosinophil count (EEOC Mean post),[2]; 180 mg,24.8 cells/hpf
same,mean esophageal eosinophil count (EEOC Mean BL),[2]; 360 mg (HD),122.6 cells/hpf
same,mean change from baseline in mean esophageal eosinophil count,[2]; 360 mg (HD),−99.9 cells/hpf
same,mean esophageal eosinophil count (EEOC Mean post),[2]; 360 mg,25.5 cells/hpf
same,mean esophageal eosinophil count at week 16 compared to the controls,[2]; [5],statistically significant reduction
same,"dysphagia symptom composite diary score, Mean","[3]; 180 mg, ITT, Baseline",27.63 and 27.6
same,"dysphagia symptom composite diary score, Median","[3]; 180 mg, ITT, Baseline",28.5
same,"dysphagia symptom composite diary score, Mean change","[3]; 180 mg, ITT",−5.3
same,"dysphagia symptom composite diary score, LSMD versus placebo","[3]; 180 mg, ITT, ANCOVA",0.02
same,"dysphagia symptom composite diary score, Mean","[3]; 180 mg, ITT, Week 16",21.9
same,"dysphagia symptom composite diary score, Median","[3]; 180 mg, ITT, Week 16",26.1
same,"dysphagia symptom composite diary score, Mean change","[3]; 180 mg, non-steroid-refractory pts",−10.0
same,"dysphagia symptom composite diary score, LSMD versus placebo","[3]; 180 mg, non-steroid-refractory",0.93
same,"dysphagia symptom composite diary score, Mean change","[3]; 180 mg, steroid-refractory pts",−1.3
same,"dysphagia symptom composite diary score, LSMD versus placebo","[3]; 180 mg, steroid-refractory",−1.3
same,"dysphagia symptom composite diary score, Mean","[3]; 360 mg, ITT, Baseline",29.03 and 29
same,"dysphagia symptom composite diary score, Median","[3]; 360 mg, ITT, Baseline",27.5
same,"dysphagia symptom composite diary score, Mean change","[3]; 360 mg, ITT",−13.3
same,"dysphagia symptom composite diary score, LSMD versus placebo","[3]; 360 mg, ITT, ANCOVA",−6.50
same,"dysphagia symptom composite diary score, Mean","[3]; 360 mg, ITT, Week 16",15.3
same,"dysphagia symptom composite diary score, Median","[3]; 360 mg, ITT, Week 16",6.2
same,"dysphagia symptom composite diary score, Mean change","[3]; 360 mg, non-steroid-refractory pts",−14.0
same,"dysphagia symptom composite diary score, LSMD versus placebo","[3]; 360 mg, non-steroid-refractory",−3.1
same,"dysphagia symptom composite diary score, Mean change","[3]; 360 mg, steroid-refractory pts",−12.3
same,"dysphagia symptom composite diary score, LSMD versus placebo","[3]; 360 mg, steroid-refractory",−12.0
same,mean dysphagia symptom composite diary score at week 16 compared to the controls,[3]; [5],reduction
same,mean dysphagia symptom composite diary score in steroid-refractory subjects,"[3]; subgroup analysis, 180 mg and 360 mg, week 16",dose-dependent reduction
same,"benefit on dysphagia composite diary score, steroid refractory versus non-steroid-refractory subgroup","[3]; subgroup analysis, over 16 weeks",steroid refractory sub-group benefited more
same,"subject's global assessment of disease severity, Mean","[4]; 180 mg, Baseline",5.0
same,"subject's global assessment of disease severity, Median","[4]; 180 mg, Baseline",5.0
same,"subject's global assessment of disease severity, Mean change",[4]; 180 mg,−2.0
same,"subject's global assessment of disease severity, LSMD versus placebo",[4]; 180 mg,−0.9
same,"subject's global assessment of disease severity, Mean","[4]; 180 mg, Week 16",2.8
same,"subject's global assessment of disease severity, Median","[4]; 180 mg, Week 16",3.0
same,"subject's global assessment of disease severity, Mean","[4]; 360 mg, Baseline",5.4
same,"subject's global assessment of disease severity, Median","[4]; 360 mg, Baseline",5.0
same,"subject's global assessment of disease severity, Mean change",[4]; 360 mg,−2.8
same,"subject's global assessment of disease severity, LSMD versus placebo",[4]; 360 mg,−1.3
same,"subject's global assessment of disease severity, Mean","[4]; 360 mg, Week 16",2.5
same,"subject's global assessment of disease severity, Median","[4]; 360 mg, Week 16",2.0
